Assay results: the DeepSol protein solubility set

Test: soluble on expression in E. coli; label from the status in PepcDB or PDB records

Sequence	soluble on expression in E. coli
MKLSLVLTARDDGARRLLADTQRQLDRTAKSRAQLERQSHTYALTGIRSEKQIQREIMLTQAAFNRLARSGKASQNDLARAAVATRNRIRELNAELKQGTGFADKMGKIGRFGAAAVAGGAAAYTVLKPAMDNRKQLDENINRVSRQAFIEDNSKSAAWIATEGAQQIKDLALELVEKNGGTHDKALDLISGMMTTGLNFAQTKNEAQAAYAFALASEGSGEDTAKLIKTLKDGGMSGKDLQLGLEHVLQSGLDGTFEVRDMVRELPSLLSAAQQAGMNGVGGLDYLLSLLQSAANKSGSPAEAATNVQNLLSKTLSPDTIGRLKKMANPNDPKKGVDWIGSVVQGKQNGENAVQVLSRLADAMLVKDKQYQDYKKRAAAGDKTAAEQANMLKGALLAQLLPDLQAKQGLLAATDMTQIREYMASLAGVTLDNGKIAKNNEARMLSAAAQQEQQESLAMLRESLTGTLVDMETSFKKLAAEYPNATLALQALTTAATAASAAMLLTAGGGKGAGFLKDVGSKALGWGKASAGGVAAGATAAGGKLLSWGKSAGSGLMNNPALVKRAGLLGMLLYSESLGDGTLPKGLRGTKTTPEMINRLKNNGIRFEPAPKREQARGGVPQYLAAPSAQPTDKMLSPLFSTQTAAYQAAIQQQTAAYQAALAQDTAAVTTGLAQVQSAMASASQTINTNVSLNIDGRVIANEVSRYQVAMFGRGAGQ	not soluble
MYRQGTNQSVCSDADEFTPEELQEFAQAFKLFDKDGNNTMNIKELGEAMRMLGLNPTEEELLNMVNEYDVDGNGKIDFGEFCKMMKEMNKETDQELIRLAFKVFDKDGNGYITAQEFKHFMTTMGERFSEEEVDEIIREVDKDGDEQIDLDEFVNMVAPIVSDGTKTDPFLEPTASTNPPTK	not soluble
MGSDKIHHHHHHMKSSQPFIYEAHAARVVFGAGSSSQVAAEVERLGAKRALVLCTPNQQAEAERIADLLGPLSAGVYAGAVMHVPIESARDATARAREAGADCAVAVGGGSTTGLGKAIALETGMPIVAIPTTYAGSEVTPVYGLTEAGTKRTGRDPRVLPRTVIYDPALTVGLPRGLSVTSALNAIAHAAEGLYARDANPVMSLMAEEGIRALAAGIPAVFNDPADLDARSQCLYGAWLCGTVLGGVGMALHHKLCHTLGGSFNLPHAETHTIVLPHALAYNAAAVPEAMARIRRATGAGEQSAAATLFDLAQRHGAPVALRDIGMREEDLDRAADIALASPYWNPRPIEREPIRALLQAAYEGVRPD	not soluble
MTSSSTPRHRGIFPVVPTTFADTGDLDLASQKRAVDFMIDAGSDGLCILANFSEQFAITDDERDVLTRTILEHVAGRVPVIVTTSHYSTQVCAARSLRAQQLGAAMVMAMPPYHGATFRVPEAQIFEFYARVSDAIAIPIMVQDAPASGTALSAPFLARMAREIEQVAYFKIETPGAANKLRELIRLGGDAIEGPWDGEEAITLLADLHAGATGAMTGGGFPDGIRPILEAWREGRHDDAYARYQAWLPLINHENRQSGILTAKALMREGGVIASERPRHPMPELHPDTRAELLAIARRLDPLVLRWAH	soluble
MGSDKIHHHHHHMEPEASPLFIDFAGISAGEKILDVGCGTGSLTFALLKAADLKEITAIDDSPVFVAETIRRSTDPRIKVEQGDACALAFDDGAFDRALALLVLHFVTDAGKAVAEMRRVVRPGGVVAASVWDHLGGMPGMRMMVDTVAALSEAGRQFRERYCFQPMMRPGEMKATFIEQGLLQVSETQLMIRMDYSNFDDYWSPMVAGEGPFGKFLSSLDAPDRARAEAAVREAYQAGQPDGPRSFANVAWACRGIAP	not soluble
MRVLFIGDVFGQPGRRVLQNHLPTIRPQFDFVIVNMENSAGGFGMHRDAARGALEAGAGCLTLGNHAWHHKDIYPMLSEDTYPIVRPLNYADPGTPGVGWRTFDVNGEKLTVVNLLGRVFMEAVDNPFRTMDALLERDDLGTVFVDFHAEATSEKEAMGWHLAGRVAAVIGTHTHVPTADTRILKGGTAYQTDAGFTGPHDSIIGSAIEGPLQRFLTERPHRYGVAEGRAELNGVALHFEGGKATAAERYRFIED	soluble
GSHMKNPYSNQIEREELILKYLPLVKAIATNIKKHLPEDVDIRDLISYGVIGLIKAVDNLSTENPKRAEAYIKLRIKGAIYDYLRSLDFGSRQVREKERRIKEVVEKLKEKLGREPTDEEVAKELGISTEELFKTLDKINFSYILSLEEVFRDFARDYSELIPSSTNVEEEVIKRELTEKVKEAVSKLPEREKLVIQLIFYEELPAKEVAKILETSVSRVSQLKAKALERLREMLSNPL	soluble
